Assays:
[1] = biological target: mouse LTβR:Fc (amino acid residues 1 to Met221 of the extracellular domain of mouse LTβR) (mouse) (UniProt P50284); assay: ELISA, receptor:Fc capture, anti-FLAG detection
[2] = biological target: mouse HVEM:Fc (mouse HVEM Met1 to Ser205 fused to the Fc region of human IgG1) (mouse; human) (UniProt Q80WM9); assay: ELISA, receptor:Fc capture, anti-FLAG detection
human LTβR:Fc (human) = human LTβR:Fc (human) (UniProt P36941); assay: SPR (BIAcore), receptor:Fc amine-coupled, LIGHT as analyte 100-500 nM
Sequence of human LTβR:Fc (human) (P36941 31-227 limits assumed): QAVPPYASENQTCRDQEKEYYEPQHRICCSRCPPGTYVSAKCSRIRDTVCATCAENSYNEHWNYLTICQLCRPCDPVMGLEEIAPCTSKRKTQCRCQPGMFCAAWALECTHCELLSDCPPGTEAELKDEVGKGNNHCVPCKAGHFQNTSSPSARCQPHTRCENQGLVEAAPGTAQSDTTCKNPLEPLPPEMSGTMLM

[3] = biological target: HVEM:Fc (extracellular region of HVEM, 1 to K184, fused to the Fc region of human IgG1) (human) (UniProt Q92956); assay: as above
Sequence of HVEM:Fc (extracellular region of HVEM, 1 to K184, fused to the Fc region of human IgG1) (human) (Q92956 39-184 limits assumed): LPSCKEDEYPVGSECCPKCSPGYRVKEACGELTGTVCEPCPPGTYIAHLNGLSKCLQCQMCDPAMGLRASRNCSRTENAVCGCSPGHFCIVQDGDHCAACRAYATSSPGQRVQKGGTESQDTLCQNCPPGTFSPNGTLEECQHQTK

[4] = biological target: LTβR (lymphotoxin β receptor) expressed by cells (human) (UniProt P36941); assay: cell-based or functional assay
[5] = biological target: HVEM:Fc (extracellular region of HVEM, 1 to K184, fused to the Fc region of human IgG1) (human) (UniProt Q92956); assay: SPR (BIAcore), receptor:Fc amine-coupled, LIGHT mutant as analyte 100-500 nM
[6] = biological target: HVEM:Fc (extracellular region of HVEM, 1 to K184, fused to the Fc region of human IgG1) (human) (UniProt Q92956); assay: SPR (BIAcore)

Sequence of mouse LTβR:Fc (amino acid residues 1 to Met221 of the extracellular domain of mouse LTβR) (mouse) (P50284 31-221 limits assumed): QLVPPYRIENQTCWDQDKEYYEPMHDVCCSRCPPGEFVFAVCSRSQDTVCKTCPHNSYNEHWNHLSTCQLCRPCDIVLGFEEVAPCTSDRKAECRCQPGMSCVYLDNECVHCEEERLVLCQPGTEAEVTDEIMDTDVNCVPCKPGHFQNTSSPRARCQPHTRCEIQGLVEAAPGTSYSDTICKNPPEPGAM
Sequence of mouse HVEM:Fc (mouse HVEM Met1 to Ser205 fused to the Fc region of human IgG1) (mouse; human) (Q80WM9 39-205): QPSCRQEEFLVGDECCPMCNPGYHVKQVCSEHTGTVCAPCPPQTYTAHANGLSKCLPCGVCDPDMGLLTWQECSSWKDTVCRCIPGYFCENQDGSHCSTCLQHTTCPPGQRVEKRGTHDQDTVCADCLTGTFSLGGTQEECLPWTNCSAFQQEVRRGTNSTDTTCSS

fold lower affinity (against the human receptors) [1] | fold lower affinity (against the human receptors) [2] | Kd (human LTβR:Fc (human)) | koff (human LTβR:Fc (human)) | kon (human LTβR:Fc (human)) | Kd [3] | koff [3] | kon [3] | Substance | concentration for complete inhibition of HCMV cytopathic effect [4] | dose for 50% cytotoxicity to HT29 cells (MTT, with IFNγ) [4] | fold induction of ICAM expression by NHDF cells (flow cytometry, 5 nM) [4] | growth inhibition of HT29 cells by LIGHT (0.25 nM), MTT after 72 h [4] | Kd [5] | koff [5] | kon [5] | fold induction of ICAM expression by NHDF cells (flow cytometry, 20 nM) [4] | fold lower affinity than LIGHT t66 [6]
10 fold | 10 fold | 4.5 nM | 0.00012 s⁻¹ | 27000 M⁻¹ s⁻¹ | 3.9 nM | 4.8e-05 s⁻¹ | 12000 M⁻¹ s⁻¹ | LIGHTt66-FLAG (recombinant soluble homotrimeric human LIGHT lacking the N-terminal 66 amino acids, N-terminal FLAG epitope) (ligand) | 100 pM | 10 to 100 pM | 4 fold | 50% |  |  |  |  | 
 |  |  |  |  |  |  |  | LIGHTt66-FLAG mutant G119E (from UniProt O43557 67-240) (ligand) |  |  |  |  | 114 nM | 0.002 s⁻¹ | 18000 M⁻¹ s⁻¹ | < 1.5 fold | 30 fold
